Measured values from the DeepSol protein solubility set.

Experiment: soluble on expression in E. coli; label from the status in PepcDB or PDB records

Sequence | soluble on expression in E. coli
MGSDKIHHHHHHMSKWQSKEQLIQLLSSLVEIPSITGTEAEVILPDFVVEQLSDLQYFKENPHHLQKNPTGDGRYFVTALVKKSDRTKNTVILVSHFDVVDVQDYGVWKEDAFNPKKLTSMFYAHKDELPDHVREDIEQGEWLFGRGTMDMKCGLALQMAMIEQACEGRFDGNVLLLAVPDEEVNSVGMRAAIPRLLELAREHDLEYKTVLNSEPMFARHPGDQKKYIYTGSIGKVLPGFLCYGKETHVGEPFAGLNGSYMASLITAELELNTDLCDIVEGEASPPPTNLLQRDLKEDYSVQIPHRAVTLFNLFLLEKSMTDVVSLLRQKVTKVAEKIEEKYEKQAYRFSKYNPFIPPNMKVNVLTYEELIAYAIEQHGQEKINEIQSSIIKNREEKDDRAVTIDLVDKLAILCKEKAPMIVLFFAPPYYPAVSSRNNLLIKEVVTEMEKYANLNHNITFENQNYFGGISDLSYVGLQNPLDSMSSLVDNMPLWDKGYSIPLQELEEFDVPVLNMGPVGKDAHQWTERLDVNYAFETLLDMLPICIEKLLVSNKITQV | not soluble
MGSDKIHHHHHHMSLAIVYSRASMGVQAPLVTIEVHLSNGKPGFTLVGLPEKTVKEAQDRVRSALMNAQFKYPAKRITVNLAPADLPKEGGRFDLPIAIGILAASDQLDASHLKQFEFVAELALTGQLRGVHGVIPAILAAQKSKRELIIAKQNANEASLVSDQNTYFAQTLLDVVQFLNGQEKLPLATEIVKESAVNFSGKNTLDLTDIIGQQHAKRALTIAAAGQHNLLFLGPPGTGKTMLASRLTGLLPEMTDLEAIETASVTSLVQNELNFHNWKQRPFRAPHHSASMPALVGGGTIPKPGEISLATNGVLFLDELPEFERKVLDALRQPLESGEIIISRANAKIQFPARFQLVAAMNPSPTGHYTGTHNRTSPQQIMRYLNRLSGPFLDRFDLSIEVPLLPQGSLQNTGDRGETSAQVREKVLKVREIQMERAGKINAYLNSKEIERDCKLNDKDAFFLEKALNKLGLSVRAYHRILKVSRTIADLQGEQQIFQPHLAEALGYRAMVRLLQKLSNM | not soluble
MGSDKIHHHHHHMSLAPSVIEPAHEEDAFMDLLATSALDDPLAAARDATADMLRQRQGDHSLPQPFYNDPRVFALEMREIFEHEWLFVGMTCEIPAKGNYLTVQIGDNPIIVVRGDQGTIHAFHNVCRHRGSRLCTQAKGKVAKLVCPYHQWTYELDGRLLFAGQDMGEDFDLGAHGLKPVAVTHAGGFLFVSLADQPPAIDDFLATLDDYLAPYEMDNVKVAAESNIVEQANWKLVIENNRECYHCNGAHPELLNSLIEYDDTDDPRATPAYRDLVARQQAHWEQQQVPWALKRFGKRNRLTRTPMIEGVVSMTMDGRPASQRLMGRLPNPDMGSLRILHLPNSWNHFMGDHAVVFRVLPLGPQQTLVTTKWLVHRDAQEGVDYDPEWMRKVWDATTDQDRQLAEENQRGINSVAYQPGPYSRTYEFGVIDFVDWYSDTMLSRLDAEAPSLHIVQG | not soluble
MGSDKIHHHHHHMSLLKITQGLFRLSDTRMLRLDELTLEQNQCWAFVGANGSGKSALARALSGELPLLSGERTTGFQHPVRLSFEQLQKLVSDEWQRNNTDLLSEGEDDTGRTTAEVIQDSLNDPTRCQQLACQFGIAHLLERRFKYLSTGETRKAMLCQALMPQPDLLILDEPFDGLDVTSRQQLADELRKLVDTGYTLVLILNRFDDIPDFINHIGVLADCTLTRIGEREAILSEALVAQLAFSEKLSGSSLPEPEDPQRHVTLPADEAHILLRNGVVQYNDRPILHELTWEVFPGQHWQIIGPNGAGKSTLLSLITGDHPQGYSNDLTLFGRKRGSGETIWDIKRHIGYVSSSLHLDYRVSTSVRNVILSGFFDSIGIYQAVSDRQRHLTEQWLILLGLSGAIADTPFQSLSWGQQRLTLIARALVKHPALLILDEPLQGLDPLNRQLVRRWLDILIGEGETQLLFVSHHAEDAPECITHRLTFVPHNDIYRYQIDELCK | not soluble
MGSDKIHHHHHHMSLTIDGVTKKFGTFTAVNNLHVSVPKGEMFGMLGANGAGKTTTFRMILGLLEPTEGTIHWREQPLTYNQTNCIGYLPEERGLYPKLTVKDQLKYLGRLKGMKTQDIQKEMKMWLERFEVPEYEHKRVEQLSKGNQQKIQFIASVLHRPELLILDEPFSGLDPVNVELLKKAVIDLKKEGTTILFSSHRMEHVEELCQHLCILHRGSPVVEGNLKNIKRSFGKKNVIIQGEFALEPLVDIPGVLRHQETSAGAKFQIANEETAKLLFQAVATAGFVQKFELEEPSLHDIFVEKVGTRYE | not soluble
MGSDKIHHHHHHMSLVCSVIFIHHAFNANILDKDYAFSDGEILMVDNAVRTHFEPYERHFKEIGFNENTIKKYLQCTNIQTVTVPVPAKFLRASNVPTGLLNEMIAYLNSEERNHHNFSELLLFSCLSIFAACKGFITLLTNGVLSVSGKVRNIVNMKLAHPWKLKDICDCLYISESLLKKKLKQEQTTFSQILLDARMQHAKNLIRVEGSVNKIAEQCGYASTSYFIYAFRKHFGNSPKRVSKEYRCQRHTGMNTGNTMSALAI | not soluble
MGSDKIHHHHHHMSNIKVLIQASSRSWAGGRDICMGLVNGEIAIVRTIKRALTAFPEAQFCLVAPEFDRGGELKGIVDEIADKRLQAFYGFDESPLSRMVAASSELKDDDFIVRVDGIHFCFDTNLSQQMVSLAQKNNLDCIKLPADFPVHFSSEVFRVGALRELVKILDKPELAKFHVHPKTYFELNRYDYKFEHLGSLPQYSDDYLRECRQLAQAIYEIPRQEVNSHRIASGDRLGYHYQLALKYLKSSMKVLDIACADGYGVRMMSTSLATVHGADLDPESVAYAKAHSSQKNVAFFVEDITDMSFDDDSYDAVTSFETLEHVPEEACLKELQRIIKPGGMLVLSTPQNSYGHIPVNSCHIVEYSLDYLLNLVGQYFHIVKVIGIKAGIIHDDADPYGTNTVLVCIKPIR | not soluble
MGSDKIHHHHHHMSNKPFYYQDPFPLSKDDTEYRLLSSDFVSVAQFEGQDILKVEPAALTLLAQQAFHDASFMLRPAHQQQVADILHDPEASENDKYVALQFLRNSEISAKGILPTCQDTGTAIIVGKKGQNVWTGGNDAEALSQGVYNTFIEDNLRYSQNAALDMYQEVNTGTNLPAQIDLYSTEGEDYKFLFVTKGGGSANKTYLYQETKALLTPGKLKSFLIEKMRSLGTAACPPYHIAFAIGGTSAETTLKTVKLASTKYYDELPTEGNEHGQAFRDVALEQEILEAARDLGLGAQFGGKYFAHDVRIIRLPRHGASCPVGMGVSCSADRNIKGKINRKGVWLEQLEQNPGKYIPEHLRETGEGDAVKIDLNRPMTEILKTLSQYPVSTRLSLTGTIIVGRDIAHAKLKERLDNGEGLPQYIKDHPIYYAGPAKTPEGYPSGSLGPTTAGRMDSYVDLLQANGGSMVMLAKGNRSQQVTDACHKHGGFYLGSIGGPAAILAQNSIKSLTCVEYPELGMEAIWKIEVEDFPAFILVDDKGNDFFQVIQSAKCVKCG | not soluble
MGSDKIHHHHHHMSNQRYMMRGVSASKEDVHNAIKNIDKGIFPKAFCKIIPDILGGDPEYCNIMHADGAGTKSSLAYMYWKETGDLSVWKGIAQDALIMNIDDLLCVGAVDNILVSSTIGRNKLLIPGEVISAIINGTDELLAELREMGVGVYATGGETADVGDLVRTIIVDSTVTCRMKRSDVINNANIRPGDVIVGLASYGQATYEKEYNGGMGSNGLTSARHDVFGKYLAEKYPESYDAAVPEELVYSGGLKLTDTVEDSPIDAGKLVLSPTRTYAPVVKKLLDTLRPEIHGMVHCSGGAQTKVLHFVENVRVVKDNLFPVPPLFKTIQEQSGTDWAEMYKVFNMGHRLEVYLSPEHAEEVIAISESFGIPAQIVGRIEACDQTELIIKSEFGEFRY | not soluble
MGSDKIHHHHHHMSNRDKILSYRDLIKKKLIPLINADYVLLDVPNHPNIGDNLIWEGELRFLENIHYKCIYSANVHNWDENKIKDAKIILFHGGGNWGDLYRECQEHRLYIAEKFKDKRIIIFPQTVWYNNKSILPIDCKIFNNHADIHICLRDQMSMDILSNYVDAKKLYLLPDMAFFVDVEAMPMRKVRNDCILFMLRTDSEIDDITFKLESDFDVKDWPTFSNNKYILLLYSYFEYFKVVVSKRLQKCKFLNVFVSPIYGLNRKNNRERYIYKGINFFSNYEIIYTTRLHGLILGILMDKKVIIVDNKYNKCKNYYDTWLREFDNIELMS | not soluble
MGSDKIHHHHHHMSNSLKASTAGLAIVDKSRQRLGWTKTSTARWWQDAHTSRATLRRFWQGDRIQREIFIAICQAVGIGNWEAIAELSNADLESTVVIPTPYLDCNEAPDLESFYGRNQELAQLEEWLTSQNCKLVTINGIAGIGKTALALALVDRIQLKFDCLIWKSLQTSPSLISLLNSLLNSFEQGVVVQNIQQGTAQLIQQLQKHHCLLILDGLEAIFSQPEDLSYGQFIQQLSRERHQSCILISSREQPNNIETNTKIYHCLNLKGLPKTEAVELLQSRGFTGKELGLSVLIQLYRGNPLVLKLVTPLIQSVFGGNVAAFLSQHTLIVGDRLRVILKQQFEQLSGLEQDILYWLAIWQEPVSFSRLQTHLLISVDPAMVLEGIVALERRSLLEKWVSDYELSFTLQPLVMKVVTDELIEHTVQEIDRVVQSHDIRHFQILRTHWLLRPGTDDIAGDRILTQLWKKLWHLYGATLPQIFNQILLLLKSQSPLAMGYIGSNVAILSGIDLL | not soluble
MGSDKIHHHHHHMSPPVRPVDHLIPEGAMTSFFDFAISQLPAATADRRGPAPDDIDAMLRRDSFAAALRLLAGSFIALYEGSPEMTTLFATRQSRLLCHALLALYFQKSTAEEGEIALTREDFGHLALRHGLASDRVAYVFFKEALKRGLTRPVDATEDQATGVVPSPPALAMLAQWYDVHFQALDLLDEGFRASRFIQRSETTLPHIHPHVSRAFLSHPEVRCPGPLSIIFNWFDAGGLLMDRLIAGIDRELPAEQGRRFTDVQTVTQLATSLSLSRSHVGRKLAAAELIGGIGWSGRRGRSALWISQGFYEEYARTQARKLLILDEALIGFV | not soluble
MGSDKIHHHHHHMSQERTDGDLRNTGLSLKHDREWDYELDRIVEAVEERDAEKVGLQFPEGLKRRGPAVADDLREELPDDVTVLLSGQPCYGACDLDTYMMRRTDVFVHFGHSPMKESDKIIYVPLFSNVDVFPIMEQAREEQLADPEDDPDVGLVTTAQHMNKFDEMREWLEERGYTVHTRRGDERLTHEGQVLGCNYASADVDADQMLYVGGGKFHPLGLAMEHPEKHVVIADPVNNVVTVADTEKFMKQRYGAVHRAMDAESWGVIFCTKIGQGRWDQAEEIVENNENAYLITMDEVTPDRLTNFGMDAYVNTGCPRITTDDGPQFKKPMLTPGEYEIAIGEKPLDSLEFDTFHGTW | not soluble
MGSDKIHHHHHHMSQHVLLNSIEHKDVKVMTHRSAALGDNLWYSVTFPQEFRSVQAHYPIFFHKDTATGQFYAVALFGFQQNDNVFLSDQGWSASYVPLTVRRQPFLIGQQTVLEDGVERQQRVIHVDLDHPRVSETEGEALFLPYGGNTPLLDEVGEILEVIHHGLQDGQRFVDALIEHQLLESFTLDIELDNGQKNQMIGFYTINEETLAGLSADALAKLHQQGYLQAIYMTLASQSNVRDLLNLKNAQG | not soluble
MGSDKIHHHHHHMSQMHQQLINEYTRTRLNEEAVSIERIYFYKTDKRVNPKQEEPFWHAAGDIPILVSAPHAVRHFRQKKIKMSDEYTGSIVYLLNKLTGCHAIAVTKLYGGDPNVDSPCIYKEKLAQLCRQGKIKLLLDIHGAARDRDFDVDFGTNNRRNLLEKMHTDEILAQNFRNCGFSKISSDYFAASSPNTIANFAARELGIPAVQIEINKHYRVPAQNPQGFHRLMAALVESINSVGRRYQEGWKDINRERKIR | not soluble
MGSDKIHHHHHHMSRALAKPEIITELSFEEIRAAVLTHLKELLPEYTFLESDPAVKVIEAFSYRELLLRQRINEAARNNILDFATGESLDALGNWHGIARIEGESDERYRERVQLHARGGNGSGTEPYYKLIALTADSRVKDAIIYRKGKDPTIYVAIFGNNEEGTASEDLLQTVSQALHRKNIIMTNDTIIVHAAVKKVLDLEADVWLLPEASLKILTTMEANLRTAWKQEQAIGRELSLSWWVSKLMIPGVQKVIAIAPTKDSVVCDEEILSIGKITLNFKGRAR | not soluble
